In the supplement of paper PMC12783771 one finds sfGFP reporter fluorescence data, which are given here for 7 variants.

± gives the standard deviation of the averaged measurements.

B1: library; numbered along this chain (parent)
chain: MNIQIGELAKRTACPVVTIRFYEQEGLLPPPGRSRGNFRLYGEEHVERLQFIRHCRSLDMPLSDVRTLLSYRKRPDQDCGEVNMLLDEHIRQVESRIGALLELKHHLVELREACSGARPAQSCGILQGLSDCVCDTRGTTAHPSD

Variants of B1 are the subject of series [1]. Description: sfGFP reporter fluorescence (15 h) (µM FITC); higher = higher leak. The note with it: library round: Round 0; ligand: none. In short, it runs like this: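 Readout was endpoint sfGFP fluorescence, converted to µM FITC through standard curves. Reactions were 1 μL of BL21 Star (DE3) PANOx-SP extract with pPbrR-sfGFP reporter, 30 μg/mL GamS and linear PbrR templates normalized to 5 nM, containing 1 µM lead chloride, 30 µM zinc acetate or no metal. Incubation lasted 15 hr at 30 °C, with up to three biological replicates.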

In series [2] the parent is B1. Nature of the series: sfGFP reporter fluorescence (15 h) (µM FITC); higher = stronger transcriptional activation. Conditions: library round: Round 0. As for the experimental part:
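Cell-free (BL21 Star DE3 extract, PANOx-SP) biosensing: 1 µL Echo-assembled reactions with linear PbrR variant templates (5 nM) and pPbrR-sfGFP reporter, with 1 µM Pb (lead chloride), 30 µM Zn (zinc acetate) or no ligand; endpoint sfGFP fluorescence after 15 h at 30 °C, calibrated as µM FITC. Round 0 library (alanine scan, site saturation, combinatorial) of PbrR from Cupriavidus metallidurans; 2 biological replicates.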

As to MNIQIGELAKRTACPVVTIRFYEQEGLLPPPGRSRFNFRLYGEEHVERLQFIRHCRSLDMPLSDVRTLLSYRKRPDQDCGEVNMLLDEHIRQVESRIGALLELKHHLVELREACSGARPAQSCGILQGLSDCVCDTRGTTAHPSD, the sfGFP reporter fluorescence was found to be 0.0594 ± 0.001 in series [1], 0.0638 ± 0.0015 in series [2] (ligand: 1 µM Pb) and 0.145 ± 0.0029 in series [2] (ligand: 30 µM Zn).
On the same counts, the results for MNIQIGELAKRTACPVVTIRFYEQEGLLPPPGRSRINFRLYGEEHVERLQFIRHCRSLDMPLSDVRTLLSYRKRPDQDCGEVNMLLDEHIRQVESRIGALLELKHHLVELREACSGARPAQSCGILQGLSDCVCDTRGTTAHPSD are 0.05589 ± 0.00026, 0.0579 ± 0.0015 and 0.117 ± 0.0044.
As to MNIQIGELAKRTACPVVTIRFYEQEGLLPPPGRSRENFRLYGEEHVERLQFIRHCRSLDMPLSDVRTLLSYRKRPDQDCGEVNMLLDEHIRQVESRIGALLELKHHLVELREACSGARPAQSCGILQGLSDCVCDTRGTTAHPSD, the values for the sfGFP reporter fluorescence in series [1], in series [2] (ligand: 1 µM Pb) and in series [2] (ligand: 30 µM Zn) were 0.05992 ± 0.00026, 0.0618 ± 0.0018 and 0.115 ± 0.0098, respectively.
Consider MNIQIGELAKRTACPVVTIRFYEQEGLLPPPGRSRCNFRLYGEEHVERLQFIRHCRSLDMPLSDVRTLLSYRKRPDQDCGEVNMLLDEHIRQVESRIGALLELKHHLVELREACSGARPAQSCGILQGLSDCVCDTRGTTAHPSD, for which the figures for the sfGFP reporter fluorescence in series [1], in series [2] (ligand: 1 µM Pb) and in series [2] (ligand: 30 µM Zn) were 0.0618 ± 0.0018, 0.0865 ± 0.0015 and 0.8609 ± 0.0015, respectively.
On the same counts, the results for MNIQIGELAKRTACPVVTIRFYEQEGLLPPPGRSRDNFRLYGEEHVERLQFIRHCRSLDMPLSDVRTLLSYRKRPDQDCGEVNMLLDEHIRQVESRIGALLELKHHLVELREACSGARPAQSCGILQGLSDCVCDTRGTTAHPSD are 0.0616, 0.0623 ± 0.0021 and 0.0695 ± 0.0018.
Take MNIQIGELAKRTACPVVTIRFYEQEGLLPPPGRSRHNFRLYGEEHVERLQFIRHCRSLDMPLSDVRTLLSYRKRPDQDCGEVNMLLDEHIRQVESRIGALLELKHHLVELREACSGARPAQSCGILQGLSDCVCDTRGTTAHPSD: the sfGFP reporter fluorescence in series [1] was 0.0627 ± 0.0015; in series [2] (ligand: 1 µM Pb), 0.0793 ± 0.0018; in series [2] (ligand: 30 µM Zn) it was 0.772 ± 0.059.
On the same counts, the results for MNIQIGELAKRTACPVVTIRFYEQEGLLPPPGRSRKNFRLYGEEHVERLQFIRHCRSLDMPLSDVRTLLSYRKRPDQDCGEVNMLLDEHIRQVESRIGALLELKHHLVELREACSGARPAQSCGILQGLSDCVCDTRGTTAHPSD are 0.06304 ± 0.00052, 0.09218 ± 0.00026 and 1.18 ± 0.099.
